From patent US20200024360A1 (Janssen / Centocor, published 2020)

T1: recombinant chimpanzee PSMA extracellular domain (ECD) protein (Pan troglodytes, UniProt Q04609 44-750 (human entry))
T1 construct: also called Chimp PSMA ECD; PSMG8
T1 chain: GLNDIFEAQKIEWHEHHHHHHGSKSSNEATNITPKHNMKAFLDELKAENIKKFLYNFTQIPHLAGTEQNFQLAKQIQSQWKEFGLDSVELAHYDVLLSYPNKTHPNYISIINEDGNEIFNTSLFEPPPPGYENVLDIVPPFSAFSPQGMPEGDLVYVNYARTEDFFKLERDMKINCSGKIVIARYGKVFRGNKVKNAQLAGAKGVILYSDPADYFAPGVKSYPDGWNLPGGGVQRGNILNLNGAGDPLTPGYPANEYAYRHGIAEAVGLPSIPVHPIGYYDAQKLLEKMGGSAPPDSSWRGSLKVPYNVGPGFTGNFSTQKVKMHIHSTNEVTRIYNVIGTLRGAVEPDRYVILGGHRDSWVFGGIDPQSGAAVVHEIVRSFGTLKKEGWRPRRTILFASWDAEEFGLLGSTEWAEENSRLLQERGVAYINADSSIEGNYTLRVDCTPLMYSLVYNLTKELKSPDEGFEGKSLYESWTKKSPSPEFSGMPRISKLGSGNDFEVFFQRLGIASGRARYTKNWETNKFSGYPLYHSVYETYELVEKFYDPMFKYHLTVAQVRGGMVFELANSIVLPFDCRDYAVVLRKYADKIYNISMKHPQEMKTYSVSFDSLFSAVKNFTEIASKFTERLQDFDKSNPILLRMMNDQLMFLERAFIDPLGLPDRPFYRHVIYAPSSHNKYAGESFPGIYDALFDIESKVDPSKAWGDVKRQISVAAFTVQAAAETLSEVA

B1: PS3B19 (bispecific antibody, human IgG4 S228P, kappa, lambda, F234A L235A)
heavy 1: not shown
light 1: not shown
heavy 2: EVQLVESGGGLVQPGGSLRLSCAASGFTFNTYAMNWVRQAPGKGLEWVARIRSKYNNYATYYAASVKGRFTISRDDSKNSLYLQMNSLKTEDTAVYYCARHGNFGNSYVSWFAYWGQGTLVTVSSASTKGPSVFPLAPCSRSTSESTAALGCLVKDYFPEPVTVSWNSGALTSGVHTFPAVLQSSGLYSLSSVVTVPSSSLGTKTYTCNVDHKPSNTKVDKRVESKYGPPCPPCPAPEAAGGPSVFLFPPKPKDTLMISRTPEVTCVVVDVSQEDPEVQFNWYVDGVEVHNAKTKPREEQFNSTYRVVSVLTVLHQDWLNGKEYKCKVSNKGLPSSIEKTISKAKGQPREPQVYTLPPSQEEMTKNQVSLTCLVKGFYPSDIAVEWESNGQPENNYKTTPPVLDSDGSFLLYSKLTVDKSRWQEGNVFSCSVMHEALHNHYTQKSLSLSLGK
light 2: QTVVTQEPSLTVSPGGTVTLTCRSSTGAVTTSNYANWVQQKPGQAPRGLIGGTNKRAPGTPARFSGSLLGGKAALTLSGVQPEDEAEYYCALWYSNLWVFGGGTKLTVLGQPKAAPSVTLFPPSSEELQANKATLVCLISDFYPGAVTVAWKADSSPVKAGVETTTPSKQSNNKYAASSYLSLTPEQWKSHRSYSCQVTHEGSTVEKTVAPTECS
notes: IgG4 PAA; PSMA arm chains first, then CD3 arm (F405L, R409K); also called PSMB119 x CD3B219
B2: PS3B28 (bispecific antibody, human IgG4 S228P, kappa, lambda, F234A L235A)
heavy 1: not shown
light 1: not shown
heavy 2: B1 heavy 2
light 2: B1 light 2
notes: IgG4 PAA; PSMA arm chains first, then CD3 arm (F405L, R409K); also called PSMB128 x CD3B219
B3: PS3B24 (bispecific antibody, human IgG4 S228P, kappa, lambda, F234A L235A)
heavy 1: not shown
light 1: not shown
heavy 2: B1 heavy 2
light 2: B1 light 2
notes: IgG4 PAA; PSMA arm chains first, then CD3 arm (F405L, R409K); also called PSMB124 x CD3B219
B4: PS3B20 (bispecific antibody, human IgG4 S228P, kappa, lambda, F234A L235A)
heavy 1: not shown
light 1: not shown
heavy 2: B1 heavy 2
light 2: B1 light 2
notes: IgG4 PAA; PSMA arm chains first, then CD3 arm (F405L, R409K); also called PSMB120 x CD3B219

How the values were obtained:
[1] = target: T1, recombinant chimpanzee PSMA …; assay: SPR Biacore 3000, bsAb captured by anti-Fc
Description: Binding to recombinant Chimp PSMA by Biacore. The Affinity measurements using Surface Plasmon Resonance (SPR) were performed using a Biacore 3000 optical biosensor (Biacore-GE Healthcare). A biosensor surface was prepared by coupling anti-Human IgG Fc (Jackson ImmunoResearch Laboratory, cat #109-005-098) to the carboxymethylated dextran surface of a CM-5 chip (Biacore, cat # BR-1000-12) using the manufacturer instructions for amine-coupling chemistry. Approximately 16,000 RU (response units) of anti-Human IgG Fc antibodies were immobilized in each of four flow cells. The kinetic experiments were performed at 25° C. in running buffer (DPBS+0.03% P20+[…]). Dilutions of antigen (recombinant Chimp PSMA, concentration either from 1.2-300 nM or 3.7-900 nM in a 3-fold serial dilution) were prepared in running buffer. About 100 RU of PSMA×CD3 bispecific mAbs were captured on flow cell 2 to 4 of the sensor chip. Flow cell 1 was used as reference surface. Capture of PSMA×CD3 bispecific mAb was followed by a 3 or 5-minute injection (association phase) of antigen (recombinant Chimp PSMA) at 50 μl/min, followed by 15 or 20 minutes of buffer flow (dissociation phase). The chip surface was regenerated by two 18-second injections of 100 mM Phosphoric acid (H₃PO₄, Sigma, cat #7961) at 50 μl/min.
The collected data were processed using BIAevaluation software (Biacore). First, double reference subtraction of the data was performed by subtracting the curves generated by buffer injection from the reference-subtracted curves for analyte injections. Then kinetic analysis of the data was performed using a Langmuir 1:1 binding model with global fit. The result for each PSMA×CD3 bispecific mAb was reported in the format of kₐ (On-rate), kd (Off-rate) and KD (Equilibrium dissociation constant).

[2] = target: T1, recombinant chimpanzee PSMA …; assay: SPR ProteOn, bsAb captured by anti-Fc
Description: The interactions of PSMA×CD3 bispecific mAbs with target (recombinant Chimp, PSMA) were studied by Surface Plasmon Resonance (SPR) using a ProteOn XPR36 system (BioRad). […] Approximately 4400 RU (response units) of anti-Human IgG Fc antibodies were immobilized. The kinetic experiments were performed at 25° C. in running buffer (DPBS+0.03% P20+100 μg/ml BSA). […] The association phase was monitored for 3 minutes at 50 μL/min, then followed by 15 minutes of buffer flow (dissociation phase). The chip surface was regenerated with two 18 second pulses of 100 mM Phosphoric acid (H₃PO₄, Sigma, cat #7961) at 100 μL/min.
The collected data were processed using ProteOn Manager software. First, the data was corrected for background using inter-spots. Then, double reference subtraction of the data was performed by using the buffer injection for analyte injections. The kinetic analysis of the data was performed using a Langmuir 1:1 binding model.

| Binder | Kd [1] | koff [1] | kon [1] | Kd [2] | koff [2] | kon [2] |
| --- | --- | --- | --- | --- | --- | --- |
| B1 | 66.3 nM | 0.000414 s⁻¹ | 6240 M⁻¹ s⁻¹ | 23.6 nM | 0.000298 s⁻¹ | 12600 M⁻¹ s⁻¹ |
| B2 | 30.8 nM | 0.00191 s⁻¹ | 62000 M⁻¹ s⁻¹ | 17.4 nM | 0.00233 s⁻¹ | 134000 M⁻¹ s⁻¹ |
| B3 | 38.6 nM | 0.000907 s⁻¹ | 23500 M⁻¹ s⁻¹ | 40.3 nM | 0.000252 s⁻¹ | 6260 M⁻¹ s⁻¹ |
| B4 | 59.1 nM | 0.000461 s⁻¹ | 7820 M⁻¹ s⁻¹ | 21.4 nM | 0.000378 s⁻¹ | 17600 M⁻¹ s⁻¹ |
